Measured values from patent US20190282704A1.

Experiments:
[1] = molecular target: wildtype feline IL-31 (Feline_IL31_wildtype) (feline); experiment: indirect ELISA, coated IL-31
[2] = molecular target: feline IL-31 15H05 mutant (Feline_IL31_15H05 mutant) (feline); experiment: indirect ELISA, coated IL-31
[3] = molecular target: wildtype feline IL-31 (Feline_IL31_wildtype) (feline); experiment: cell-based or functional assay
[4] = molecular target: wildtype feline IL-31 (Feline_IL31_wildtype) (feline); experiment: SPR (Biacore), immobilised IL-31, 1:1 fit
[5] = molecular target: canine IL-31 (Canine_IL31) (canine); experiment: SPR (Biacore), immobilised IL-31, 1:1 fit
[6] = molecular target: wildtype feline IL-31 (Feline_IL31_wildtype) (feline)
[7] = molecular target: canine IL-31 (Canine_IL31) (canine)

canine IL-31 (Canine_IL31) (canine), sequence (chain, as listed by the source limits assumed, form in doubt): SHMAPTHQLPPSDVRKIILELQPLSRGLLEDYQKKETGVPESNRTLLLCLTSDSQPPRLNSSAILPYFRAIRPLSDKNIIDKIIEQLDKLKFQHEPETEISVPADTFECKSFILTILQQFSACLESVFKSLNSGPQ
wildtype feline IL-31 (Feline_IL31_wildtype) (feline), sequence (chain, as listed by the source limits assumed, form in doubt): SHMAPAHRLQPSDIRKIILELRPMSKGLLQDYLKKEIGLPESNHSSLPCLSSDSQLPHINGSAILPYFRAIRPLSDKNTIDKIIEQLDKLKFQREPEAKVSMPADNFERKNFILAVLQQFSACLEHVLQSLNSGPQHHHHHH
feline IL-31 15H05 mutant (Feline_IL31_15H05 mutant) (feline), sequence (chain, as listed by the source mutant limits assumed, form in doubt): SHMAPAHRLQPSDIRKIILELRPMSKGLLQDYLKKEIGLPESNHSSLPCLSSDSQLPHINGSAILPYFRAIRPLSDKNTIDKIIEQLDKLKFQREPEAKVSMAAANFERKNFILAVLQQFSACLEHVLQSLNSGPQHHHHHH

Binding (ELISA OD) [1] [OD] | Binding (ELISA OD) [2] [OD] | potency against feline IL-31 in the feline FCWF assay, against the mouse version [3] [fold] | Kd [4] [pM] | koff [4] [s⁻¹] | kon [4] [M⁻¹ s⁻¹] | Kd [5] [pM] | koff [5] [s⁻¹] | kon [5] [M⁻¹ s⁻¹] | IC50, inhibition of feline IL-31-induced STAT3 phosphorylation, canine DH82 cells [6] [µg/mL] | IC50, inhibition of feline IL-31-induced STAT3 phosphorylation, feline FCWF4 cells [6] [µg/mL] | IC50, inhibition of canine IL-31-induced STAT3 phosphorylation, canine DH82 cells [7] [µg/mL] | IC50, inhibition of canine IL-31-induced STAT3 phosphorylation, feline FCWF4 cells [7] [µg/mL] | Binder
1.62 | 1.38 |  |  |  |  |  |  |  |  |  |  |  | ZIL154 (antibody, V domains shown) VH: EVHLVESGGDLVKPWGSLRLSCVASGFTFSDRGMSWVRQSPGKGLQWVAYIRYDGSRTDYADAVEGRFTISRDNAKNTLYLQMNSLRAEDTAVYYCARWDGSSFDYWGQGTLVTVSS VL: DIVVTQTPLSLSVSPGETASFSCKASQSLLHSDGNTYLDWFRQKPGQSPQRLIYKVSNRDPGVPDRFSGSGSGTDFTLRISGVEADDAGLYYCMQAIHFPLTFGAGTKVELKR
 |  | 2 | 22200 | 0.000444 | 20000 | 764 | 0.000141 | 185000 |  |  |  |  | Feline 11E12 1.1 (antibody, V domains shown) VH: QVLLVQSGAEVKKPGASVKIFCKASGYSFTYYDINWLRQAPEQGLEWMGWIFPGDGGTKYNETFKGRLTLTADTSTNTVYMELSSLRSADTAMYYCARGGTSVIRDAMDYWGQGALVTVSS VL: EIQMTQSPSSLSASPGDRVTITCRASESVDNYGISFMHWYQQKPGKVPKLLIYRASNLESGVPSRFSGSGSGTDFTLTISSLEPEDAATYYCQQSNKDPLTFGQGT
1.8 | 0.73 |  |  |  |  |  |  |  |  |  |  |  | ZIL9 (antibody, V domains shown) VH: EVQLVESGGDLVKPPGSLRLSCVASGFTFSSYDMTWVRQAPGKGLQWVADVNSGGTGTAYAVAVKGRFTISRDNAKKTLYLQMNSLRAEDTAVYYCAKLGVRDGLSVWGQGTLVTVSS VL: SSVLTQPPSVSVSLGQTATISCSGESLNEYYTQWFQQKAGQAPVLVIYRDTERPSGIPDRFSGSSSGNTHTLTISGARAEDEADYYCESAVDTGTLVFGGGTHLAVLR
1.42 | 0.93 |  |  |  |  |  |  |  |  |  |  |  | ZIL171 (antibody, V domains shown) VH: EVQLVESGGDLVKPAGSLRLSCVASGFTFRTYVMNWVRQAPGKGLQWVASINGGGSSPTYADAVRGRFTVSRDNAQNSLFLQMNSLRAEDTAIYFCVVSMVGPFDYWGHGTLVTVSS VL: SSVLTQPPSVSVSLGQTATISCSGKSLSYYYAQWFQQKAGQAPVLVIYKDTERPSGIPDRFSGSSSGNTHTLTISGARAEDEADYYCESAVSSDTIVFGGGTHLTVLR
1.6 | 1.31 |  |  |  |  |  |  |  |  |  |  |  | ZIL159 (antibody, V domains shown) VH: EVQLVESGGDLVKPAGSLRLSCVASGFTFSSYVMTWVRQAPGKGLQWVAGINSEGSRTAYADAVKGRFTISRDNAKNTLYLQIDSLRAEDTAIYYCATGDIVATGTSYWGQGTLVTVSS VL: SNVLTQPPSVSVSLGQTATISCSGETLNRFYTQWFQQKAGQAPVLVIYKDTERPSGIPDRFSGSSSGNIHTLTISGARAEDEAAYYCKSAVSIDVGVFGGGTHLTVFR
1.89 | 0.92 |  |  |  |  |  |  |  |  |  |  |  | ZIL1 (antibody, V domains shown) VH: EVQLVESGGDLVKPGGSLRLSCVASGFTFSSYGMSWVRQAPGKGLQWVAHINSGGSSTYYADAVKGRFTISRDNAKNTLYLQMNSLRAEDTAVYYCVEVYTTLAAFWTDNFDYWGQGTLVTVSS VL: QSVLTQPTSVSGSLGQRVTISCSGSTNNIGILAATWYQQLPGKAPKVLVYSDGNRPSGVPDRFSGSKSGNSATLTITGLQAEDEADYYCQSFDTTLDAYVFGSGTQLTVLR
1.48 | 0.92 |  |  |  |  |  |  |  |  |  |  |  | ZIL69 (antibody, V domains shown) VH: EVQLVESGGDLVKPAGSLRLSCVASGFTFSSYAMKWVRQAPGKGLQWVATINNDGTRTGYADAVRGRFTISKDNAKNTLYLQMDSLRADDTAVYYCTKGNAESGCTGDHCPPYWGQGTLVTVSS VL: SSVLTQPPSVSVSLGQTATISCSGESLNKYYAQWFQQKAGQAPVLVIYKDTERPSGIPDRFSGSSAGNTHTLTISGARAEDEADYYCESAVSSETNVFGSGTQLTVLR
1.15 | 1.33 |  | 738 | 0.000123 | 167000 | 0.763 | 4.8e-07 | 629000 | 2.47 | 2.01 |  |  | mouse anti IL-31 antibody 11E12 (antibody, V domains shown) VH: QVQLQQSGAELVKPGASVKLSCKASGYTFKYYDINWVRQRPEQGLEWIGWIFPGDGGTKYNETFKGKATLTTDKSSSTAYMQLSRLTSEDSAVYFCARGGTSVIRDAMDYWGQGTSVTVSS VL: DIVLTQSPASLAVSLGQRATISCRASESVDNYGISFMHWYQQKPGQPPKLLIYRASNLESGIPARFSGSGSRTDFTLTINPVETDDVATYYCQQSNKDPLTFGAGTKLELK
 |  |  | 130 | 5.06e-05 | 388000 | 0.127 | 8.7e-08 | 684000 | 4.4 | 3.45 |  |  | mouse: feline 11E12 chimera (antibody) heavy: QVQLQQSGAELVKPGASVKLSCKASGYTFKYYDINWVRQRPEQGLEWIGWIFPGDGGTKYNETFKGKATLTTDKSSSTAYMQLSRLTSEDSAVYFCARGGTSVIRDAMDYWGQGTSVTVSSASTTAPSVFPLAPSCGTTSGATVALACLVLGYFPEPVTVSWNSGALTSGVHTFPAVLQASGLYSLSSMVTVPSSRWLSDTFTCNVAHPPSNTKVDKTVRKTDHPPGPKPCDCPKCPPPEAAGAPSIFIFPPKPKDTLSISRTPEVTCLVVDLGPDDSDVQITWFVDNTQVYTAKTSPREEQFNSTYRVVSVLPILHQDWLKGKEFKCKVNSKSLPSPIERTISKAKGQPHEPQVYVLPPAQEELSRNKVSVTCLIKSFHPPDIAVEWEITGQPEPENNYRTTPPQLDSDGTYFVYSKLSVDRSHWQRGNTYTCSVSHEALHSHHTQKSLTQSPGK light: DIVLTQSPASLAVSLGQRATISCRASESVDNYGISFMHWYQQKPGQPPKLLIYRASNLESGIPARFSGSGSRTDFTLTINPVETDDVATYYCQQSNKDPLTFGAGTKLELKRSDAQPSVFLFQPSLDELHTGSASIVCILNDFYPKEVNVKWKVDGVVQNKGIQESTTEQNSKDSTYSLSSTLTMSSTEYQSHEKFSCEVTHKSLASTLVKSFQRSECQRE
1.67 | 1.3 |  |  |  |  |  |  |  |  |  |  |  | ZIL94 (antibody, V domains shown) VH: EVQLVDSGGDLVKPGGSLRLSCVASGFTFSTYFMSWVRQAPGRGLQWVALISSDGSGTYYADAVKGRFTISRDNAKNTLYLQMNSLRAEDTAMYYCAIFWRAFNDWGQGTLVTVSS VL: QTVVIQEPSLSVSPGGTVTLTCGLNSGSVSTSNYPGWYQQTRGRTPRTIIYDTGSRPSGVPNRFSGSISGNKAALTITGAQPEDEADYYCSLYTDSDILVFGGGTHLTVLR
 |  |  | 248 | 0.000108 | 437000 | 0.826 | 6.55e-07 | 793000 |  | 1.15 |  |  | mouse: canine 11E12 chimera (antibody) heavy: QVQLQQSGAELVKPGASVKLSCKASGYTFKYYDINWVRQRPEQGLEWIGWIFPGDGGTKYNETFKGKATLTTDKSSSTAYMQLSRLTSEDSAVYFCARGGTSVIRDAMDYWGQGTSVTVSSASTTAPSVFPLAPSCGSTSGSTVALACLVSGYFPEPVTVSWNSGSLTSGVHTFPSVLQSSGLYSLSSMVTVPSSRWPSETFTCNVAHPASKTKVDKPVPKRENGRVPRPPDCPKCPAPEMLGGPSVFIFPPKPKDTLLIARTPEVTCVVVDLDPEDPEVQISWFVDGKQMQTAKTQPREEQFNGTYRVVSVLPIGHQDWLKGKQFTCKVNNKALPSPIERTISKARGQAHQPSVYVLPPSREELSKNTVSLTCLIKDFFPPDIDVEWQSNGQQEPESKYRTTPPQLDEDGSYFLYSKLSVDKSRWQRGDTFICAVMHEALHNHYTQESLSHSPGK light: DIVLTQSPASLAVSLGQRATISCRASESVDNYGISFMHWYQQKPGQPPKLLIYRASNLESGIPARFSGSGSRTDFTLTINPVETDDVATYYCQQSNKDPLTFGAGTKLELKRNDAQPAVYLFQPSPDQLHTGSASVVCLLNSFYPKDINVKWKVDGVIQDTGIQESVTEQDKDSTYSLSSTLTMSSTEYLSHELYSCEITHKSLPSTLIKSFQRSEC
1.94 | 0.05 |  | 348 | 1.69e-05 | 48400 | 4.87 | 6.56e-07 | 135000 | 2.7 | 4.26 | 11.2 | 25.7 | mouse anti IL-31 antibody 15H05 (antibody, V domains shown) VH: QVQLQQSAAELARPGASVKMSCKTSGYTFTSYTIHWIKQRPGQGLEWIGNINPTSGYTENNQRFKDKTTLTVDRSSNTAYLQLHSLTSEDSAVYFCARWGFKYDGEWSFDVWGAGTTVTVSS VL: DIQMNQSPSSLSASLGDTITVTCRASQGISIWLSWYQQKPGNIPKVLINKASNLHIGVPPRFSGSGSGTHFTLTITSLQPEDIATYYCLQSQTYPLTFGGGTKLEIN
